{"source": "paper PMC6608630", "about": "“The structural characterization of a glucosylglycerate hydrolase provides insights into the molecular mechanism of mycobacterial recovery from nitrogen starvation” (IUCrJ, 2019)", "proteins": {"B1": {"name": "MhGgH (M. hassiacum glucosylglycerate hydrolase) (Mycolicibacterium hassiacum DSM 44199) (protein)", "chain": "MPHDPSFTPTQLAARAAYLLRGNDLGTMTTAAPLLYPHMWSWDAAFVAIGLAPLSVERAVVELDTLLSAQWRNGMIPHIVFANGVDGYFPGPARWATATLADNAPRNRLTSGITQPPVHAIAVQRILEHARTRGRSTRAVAEAFLDRRWGDLMRWHRWLAECRDRNERGRITLYHGWESGMDNSPRWDSAYANVVPGKLPEYQRADNVIITDPSQRPSDGEYDRYLWLLEEMKAVRYDDERLPSVMSFQVEDVFFSAIFSVACQVLAEIGEDYKRPHADVKDLYLWAERFRAGVVETTDQRTGAARDFDVLAEKWLVTETAAQFAPLLCGGLPHDRERALLKLLEGPRFCGHPDLKYGLIPSTSPVSRDFRPREYWRGPVWPVLTWLFSWCFARRGWAERARLLRQEGLRQASDGSFAEYYEPFTGEPLGSMQQSWTAAAVLDWLG", "notes": "full-length from pETM11-MhGgH, N-terminal His tag removed with TEV protease leaving Gly-Ala dipeptide; E. coli BL21(DE3); homotetramer; last residue Gly446"}}, "key": {"[1]": {"substrate": "O=C(O)[C@@H](CO)O[C@H]1O[C@H](CO)[C@@H](O)[C@H](O)[C@H]1O", "test": "released glucose by glucose oxidase assay; allosteric sigmoidal fit", "type": "biochemical, Mycolicibacterium hassiacum", "details": "20 mM sodium phosphate pH 6.0, 100 mM KCl, 5 mM MgCl2, 50 °C, Hill h 1.77, tag-less enzyme", "from_the_text": "released glucose by glucose oxidase assay; allosteric sigmoidal fit on MhGgH (M. hassiacum glucosylglycerate hydrolase)"}, "[2]": {"substrate": "O=C(O)[C@@H](CO)O[C@H]1O[C@H](CO)[C@@H](O)[C@H](O)[C@@H]1O", "test": "released mannose by K-MANGL assay kit; allosteric sigmoidal fit", "type": "biochemical, Mycolicibacterium hassiacum", "details": "20 mM sodium phosphate pH 6.0, 100 mM KCl, 5 mM MgCl2, 50 °C, Hill h 1.29, tag-less enzyme, rough estimation, incomplete kinetic curve", "from_the_text": "released mannose by K-MANGL assay kit; allosteric sigmoidal fit on MhGgH (M. hassiacum glucosylglycerate hydrolase)"}}, "data": [{"protein": "B1", "values": [{"measurement": "K0.5", "setting": "[1]", "value": "9.36 ± 0.69", "unit": "mM"}, {"measurement": "Vmax", "setting": "[1]", "value": 3.6, "unit": "µmol/min/mg"}, {"measurement": "K0.5", "setting": "[2]", "value": "84.18 ± 30.27", "unit": "mM"}, {"measurement": "Vmax", "setting": "[2]", "value": 3.09, "unit": "µmol/min/mg"}]}]}
